Target: ESO 9V WT-A*02:01 pMHC (human)
Assay: BLI (OctetRED 384), pMHC immobilised on streptavidin biosensor, soluble 1G4 TCR in 1:2 dilution series from 24 µM; fit R² = 0.9992

- Kd: 5.12 µM
Substance: 1G4 TCR

— US20200088726A1
